In the supplement of paper PMC9112550, “Optimization of the antimicrobial peptide Bac7 by deep mutational scanning” (BMC Biology, 2022):

Tested on: Escherichia coli TOP10
Experiment: shrunken log2 fold change of peptide-encoding DNA abundance (4.5 h post-induction vs induction); higher = less antimicrobial activity (less host growth inhibition)
Details: time post-induction: 4.5 h; library: site-saturation at positions 5, 18, 19, 20
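Also: peptides expressed intracellularly from a pBAD plasmid library in pooled LB shake-flask culture, induced with 0.3% L-arabinose, DNA abundance read by NGS, three biological replicates, DESeq2 with apeglm shrinkage.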

Row | Sequence | shrunken log2 fold change
1 | RRIRQRPPRLPRPRPRPLKGPRP | -0.272
2 | RRIRARPPRLPRPRPRPLSYPRP | -0.00336
3 | RRIRWRPPRLPRPRPRPNSQPRP | -0.0188
4 | RRIRVRPPRLPRPRPRPCWQPRP | -0.0523
5 | RRIRQRPPRLPRPRPRPWAPPRP | 0.0985
6 | RRIRMRPPRLPRPRPRPIPMPRP | 0.414
7 | RRIRNRPPRLPRPRPRPLWRPRP | 0.179
8 | RRIRHRPPRLPRPRPRPQLPPRP | 0.181
9 | RRIRTRPPRLPRPRPRPKQTPRP | 0.204
10 | RRIRGRPPRLPRPRPRPMRDPRP | 0.947
11 | RRIRQRPPRLPRPRPRPCIPPRP | 0.00582
12 | RRIRQRPPRLPRPRPRPGFSPRP | 0.00737
13 | RRIRYRPPRLPRPRPRPVQTPRP | -0.00992
14 | RRIRQRPPRLPRPRPRPDDWPRP | 0.0952
15 | RRIRFRPPRLPRPRPRPYCSPRP | -0.206
16 | RRIRSRPPRLPRPRPRPDFQPRP | -0.0122
17 | RRIRIRPPRLPRPRPRPRDEPRP | 0.27
18 | RRIRYRPPRLPRPRPRPCKDPRP | -1.14
19 | RRIRLRPPRLPRPRPRPSEMPRP | -0.0614
20 | RRIRWRPPRLPRPRPRPFSEPRP | -0.186
21 | RRIRPRPPRLPRPRPRPWVYPRP | -0.227
22 | RRIRCRPPRLPRPRPRPAGCPRP | 0.262
23 | RRIRYRPPRLPRPRPRPIYMPRP | -0.22
24 | RRIRTRPPRLPRPRPRPEDFPRP | -0.00101
25 | RRIRFRPPRLPRPRPRPSAKPRP | 0.319

Row | Sequence | shrunken log2 fold change
26 | RRIRVRPPRLPRPRPRPECDPRP | 0.247
27 | RRIRRRPPRLPRPRPRPPGKPRP | 0.978
28 | RRIRTRPPRLPRPRPRPTQLPRP | -0.319
29 | RRIRPRPPRLPRPRPRPFSRPRP | -0.099
30 | RRIRFRPPRLPRPRPRPVEIPRP | -0.391
31 | RRIRERPPRLPRPRPRPKTAPRP | -0.0233
32 | RRIRARPPRLPRPRPRPMSDPRP | 0.56
33 | RRIRKRPPRLPRPRPRPSQVPRP | 0.31
34 | RRIRTRPPRLPRPRPRPSSPPRP | -0.312
35 | RRIRWRPPRLPRPRPRPFEHPRP | -0.113
36 | RRIRIRPPRLPRPRPRPLDRPRP | 0.00847
37 | RRIRCRPPRLPRPRPRPVEYPRP | -0.0499
38 | RRIRNRPPRLPRPRPRPHPQPRP | -0.106
39 | RRIRLRPPRLPRPRPRPQSAPRP | -0.372
40 | RRIRHRPPRLPRPRPRPRDGPRP | 0.84
41 | RRIRFRPPRLPRPRPRPNVAPRP | 0.365
42 | RRIRFRPPRLPRPRPRPNGMPRP | -0.0957
43 | RRIRKRPPRLPRPRPRPLETPRP | 0.361
44 | RRIRIRPPRLPRPRPRPHKIPRP | -0.462
45 | RRIRRRPPRLPRPRPRPGARPRP | 0.507
46 | RRIRDRPPRLPRPRPRPWTTPRP | -0.0204
47 | RRIRNRPPRLPRPRPRPGDWPRP | 2.87
48 | RRIRKRPPRLPRPRPRPRPPPRP | 1.15
49 | RRIRNRPPRLPRPRPRPCSPPRP | -0.354
50 | RRIRWRPPRLPRPRPRPRIDPRP | -0.0323

Row | Sequence | shrunken log2 fold change
51 | RRIRVRPPRLPRPRPRPEAWPRP | 0.181
52 | RRIRVRPPRLPRPRPRPNEHPRP | -0.00876
53 | RRIRFRPPRLPRPRPRPFVTPRP | -0.442
54 | RRIRHRPPRLPRPRPRPCNAPRP | 0.0746
55 | RRIRKRPPRLPRPRPRPTQMPRP | 0.8
56 | RRIRFRPPRLPRPRPRPRNCPRP | -0.132
57 | RRIRDRPPRLPRPRPRPPGMPRP | 0.201
58 | RRIRRRPPRLPRPRPRPAFNPRP | 0.201
59 | RRIRMRPPRLPRPRPRPFIYPRP | 0.892
60 | RRIRWRPPRLPRPRPRPKHEPRP | 0.288
61 | RRIRNRPPRLPRPRPRPLIRPRP | -0.0892
62 | RRIRFRPPRLPRPRPRPMSAPRP | -0.105
63 | RRIRIRPPRLPRPRPRPHKRPRP | -0.169
64 | RRIRGRPPRLPRPRPRPGVVPRP | 1.43
65 | RRIRERPPRLPRPRPRPLCGPRP | -0.2
66 | RRIRMRPPRLPRPRPRPVEHPRP | -0.00663
67 | RRIRDRPPRLPRPRPRPYHAPRP | -0.0316
68 | RRIRCRPPRLPRPRPRPPDMPRP | -0.000808
69 | RRIRPRPPRLPRPRPRPPYTPRP | -0.232
70 | RRIRTRPPRLPRPRPRPVYRPRP | -0.361
71 | RRIRFRPPRLPRPRPRPFHLPRP | -0.391
72 | RRIRKRPPRLPRPRPRPHWCPRP | 1.98
73 | RRIRPRPPRLPRPRPRPLVFPRP | 0.257
74 | RRIRERPPRLPRPRPRPIERPRP | 0.00274
75 | RRIRFRPPRLPRPRPRPAYPPRP | -0.412

Row | Sequence | shrunken log2 fold change
76 | RRIRWRPPRLPRPRPRPEWSPRP | 0.0628
77 | RRIRKRPPRLPRPRPRPEEWPRP | -0.0212
78 | RRIRRRPPRLPRPRPRPLMWPRP | 0.163
79 | RRIRKRPPRLPRPRPRPCKEPRP | -0.0743
80 | RRIRKRPPRLPRPRPRPLYNPRP | -0.263
81 | RRIRTRPPRLPRPRPRPDDCPRP | -0.0459
82 | RRIRRRPPRLPRPRPRPLPFPRP | -0.344
83 | RRIRYRPPRLPRPRPRPRLCPRP | -0.0154
84 | RRIRIRPPRLPRPRPRPEQIPRP | -9e-05
85 | RRIRHRPPRLPRPRPRPVRCPRP | 0.592
86 | RRIRDRPPRLPRPRPRPPHTPRP | 0.198
87 | RRIRTRPPRLPRPRPRPGSQPRP | 0.0756
88 | RRIRVRPPRLPRPRPRPYEPPRP | -1.29
89 | RRIRHRPPRLPRPRPRPPMYPRP | -0.739
90 | RRIRLRPPRLPRPRPRPWHGPRP | -0.109
91 | RRIRARPPRLPRPRPRPNQYPRP | -0.801
92 | RRIRARPPRLPRPRPRPQNHPRP | -0.446
93 | RRIRVRPPRLPRPRPRPHKVPRP | -0.331
94 | RRIRSRPPRLPRPRPRPECPPRP | -0.0934
95 | RRIRWRPPRLPRPRPRPESGPRP | 0.347
96 | RRIRVRPPRLPRPRPRPFRSPRP | -0.267
97 | RRIRTRPPRLPRPRPRPLNLPRP | -0.548
98 | RRIRIRPPRLPRPRPRPVNVPRP | -0.404
99 | RRIRSRPPRLPRPRPRPWVSPRP | -0.203
100 | RRIRERPPRLPRPRPRPFSDPRP | -0.0836

Row | Sequence | shrunken log2 fold change
101 | RRIRRRPPRLPRPRPRPYAVPRP | -0.191
102 | RRIRDRPPRLPRPRPRPCQLPRP | -0.0273
103 | RRIRKRPPRLPRPRPRPLPSPRP | 0.0447
104 | RRIRMRPPRLPRPRPRPELRPRP | 2.02
105 | RRIRMRPPRLPRPRPRPWWVPRP | -0.129
106 | RRIRHRPPRLPRPRPRPQTPPRP | 0.374
107 | RRIRFRPPRLPRPRPRPPVVPRP | 0.159
108 | RRIRLRPPRLPRPRPRPFMVPRP | -0.606
109 | RRIRKRPPRLPRPRPRPTRHPRP | 0.482
110 | RRIRKRPPRLPRPRPRPWTQPRP | 0.0628
111 | RRIRQRPPRLPRPRPRPYQQPRP | -0.0082
112 | RRIRERPPRLPRPRPRPPWKPRP | 0.0356
113 | RRIRTRPPRLPRPRPRPGCGPRP | 0.385
114 | RRIRSRPPRLPRPRPRPMTNPRP | -0.309
115 | RRIRRRPPRLPRPRPRPRWAPRP | 0.206
116 | RRIRYRPPRLPRPRPRPEYLPRP | -0.139
117 | RRIRFRPPRLPRPRPRPINMPRP | -0.319
118 | RRIRKRPPRLPRPRPRPQMVPRP | -0.0031
119 | RRIRQRPPRLPRPRPRPLEAPRP | 0.225
120 | RRIRSRPPRLPRPRPRPKSLPRP | -0.0747
121 | RRIRVRPPRLPRPRPRPRSMPRP | -0.123
122 | RRIRERPPRLPRPRPRPPSVPRP | -0.126
123 | RRIRPRPPRLPRPRPRPQVAPRP | -0.0363
124 | RRIRRRPPRLPRPRPRPPDTPRP | 0.436
125 | RRIRARPPRLPRPRPRPTPEPRP | 0.694
